This experiment deals with T1, biotinylated recombinant human BCMA (ACROS Cat #BC7-H82F0) (human, UniProt Q02223 1-54, biotinylated (site not stated)).
T1 construct: Bought reagent; also called CD269; B-cell maturation antigen
T1 sequence (looked up): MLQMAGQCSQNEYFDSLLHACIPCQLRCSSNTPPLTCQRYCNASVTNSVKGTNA
In words: flow cytometry of CAR T cells stained with biotinylated recombinant antigen. Background: A flow cytometer gives signals particle by particle.

B1: anti-BCMA CAR comprising the amino acid sequence of SEQ ID NO: 86 (other)
chain: QVQLVQSGAELKKPGASVKVSCKASGNTLTNYVIHWVRQAPGQRLEWMGYILPYNDLTKYSQKFQGRVTITRDKSASTAYMELSSLRSEDTAVYYCTRWDWDGFFDPWGQGTTVTVSSGGGGSGGGGSGGGGSEIVMTQSPATLSVSPGERASISCRASQSLVHSNGNTHLHWYQQRPGQAPRLLIYSVSNRFSEVPARFSGSGSGTDFTLTISSVESEDFAVYYCSQTSHIPYTFGGGTKLEIKSAAAFVPVFLPAKPTTTPAPRPPTPAPTIASQPLSLRPEACRPAAGGAVHTRGLDFACDIYIWAPLAGTCGVLLLSLVITLYCNHRNRKRGRKKLLYIFKQPFMRPVQTTQEEDGCSCRFPEEEEGGCELRVKFSRSADAPAYQQGQNQLYNELNLGRREEYDVLDKRRGRDPEMGGKPRRKNPQEGLYNELQKDKMAEAYSEIGMKGERRRGKGHDGLYQGLSTATKDTYDALHMQALPPR
notes: Chimeric antigen receptor on engineered human T cells
With B1, the binding result is “binds”.

For the origin of these results see patent US20220008473A1 (CRISPR THERAPEUTICS, published 2022).
